Experimental data from IntAct's records for PubMed 21516122.

B1: Histone-lysine N-methyltransferase PRDM16 (Homo sapiens), Q9HAZ2-4 (parent)
chain: MCQISEQIYYKVIKDIEPGEELLVHVKEGVYPLGTVPPGLDEEPTFRCDECDELFQSKLDLRRHKKYTCGSVGAALYEGLAEELKPEGLGGGSGQAHECKDCERMFPNKYSLEQHMVIHTEEREYKCDQCPKAFNWKSNLIRHQMSHDSGKRFECENCVKVFTDPSNLQRHIRSQHVGARAHACPDCGKTFATSSGLKQHKHIHSTVKPFICEVCHKSYTQFSNLCRHKRMHADCRTQIKCKDCGQMFSTTSSLNKHRRFCEGKNHYTPGGIFAPGLPLTPSPMMDKAKPSPSLNHASLGFNEYFPSRPHPGSLPFSTAPPTFPALTPGFPGIFPPSLYPRPPLLPPTSLLKSPLNHTQDAKLPSPLGNPALPLVSAVSNSSQGTTAAAGPEEKFESRLEDSCVEKLKTRSSDMSDGSDFEDVNTTTGTDLDTTTGTGSDLDSDVDSDPDKDKGKGKSAEGQPKFGGGLAPPGAPNSVAEVPVFYSQHSFFPPPDEQLLTATGAAGDSIKAIASIAEKYFGPGFMGMQEKKLGSLPYHSAFPFQFLPNFPHSLYPFTDRALAHNLLVKAEPKSPRDALKVGGPSAECPFDLTTKPKDVKPILPMPKGPSAPASGEEQPLDLSIGSRARASQNGGGREPRKNHVYGERKLGAGEGLPQVCPARMPQQPPLHYAKPSPFFMDPIYSRVEKRKVTDPVGALKEKYLRPSPLLFHPQMSAIETMTEKLESFAAMKADSGSSLQPLPHHPFNFRSPPPTLSDPILRKGKERYTCRYCGKIFPRSANLTRHLRTHTGEQPYRCKYCDRSFSISSNLQRHVRNIHNKEKPFKCHLCNRCFGQQTNLDRHLKKHEHENAPVSQHPGVLTNHLGTSASSPTSESDNHALLDEKEDSYFSEIRNFIANSEMNQASTRTEKRADMQIVDGSAQCPGLASEKQEDVEEEDDDDLEEDDEDSLAGKSQDDTVSPAPEPQAAYEDEEDEEPAASLAVGFDHTRRCAEDHEGGLLALEPMPTFGKGLDLRRAAEEAFEVKDVLNSTLDSEALKHTLCRQAKNQAYAMMLSLSEDTPLHTPSQGSLDAWLKVTGATSESGAFHPINHL

Assays:
[1] = variants of: B1; conditions: with hdac2_chick HDAC2, P56519
Sequence of hdac2_chick HDAC2, P56519 (P56519 whole entry): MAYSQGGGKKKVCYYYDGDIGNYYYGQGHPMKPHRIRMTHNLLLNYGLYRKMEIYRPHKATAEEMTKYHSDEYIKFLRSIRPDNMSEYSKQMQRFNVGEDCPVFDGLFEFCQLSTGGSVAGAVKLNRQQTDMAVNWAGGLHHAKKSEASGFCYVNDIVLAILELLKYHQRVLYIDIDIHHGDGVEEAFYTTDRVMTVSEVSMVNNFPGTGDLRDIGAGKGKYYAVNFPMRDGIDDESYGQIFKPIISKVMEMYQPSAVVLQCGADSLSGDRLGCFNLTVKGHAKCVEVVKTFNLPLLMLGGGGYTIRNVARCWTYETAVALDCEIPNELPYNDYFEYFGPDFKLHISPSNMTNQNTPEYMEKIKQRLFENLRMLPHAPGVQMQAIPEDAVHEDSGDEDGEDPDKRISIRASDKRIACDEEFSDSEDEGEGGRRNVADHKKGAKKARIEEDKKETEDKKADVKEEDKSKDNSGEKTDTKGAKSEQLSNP

[2] = variants of: B1; conditions: with ctbp2_mouse Ctbp2, P56546
Sequence of ctbp2_mouse Ctbp2, P56546 (P56546 whole entry): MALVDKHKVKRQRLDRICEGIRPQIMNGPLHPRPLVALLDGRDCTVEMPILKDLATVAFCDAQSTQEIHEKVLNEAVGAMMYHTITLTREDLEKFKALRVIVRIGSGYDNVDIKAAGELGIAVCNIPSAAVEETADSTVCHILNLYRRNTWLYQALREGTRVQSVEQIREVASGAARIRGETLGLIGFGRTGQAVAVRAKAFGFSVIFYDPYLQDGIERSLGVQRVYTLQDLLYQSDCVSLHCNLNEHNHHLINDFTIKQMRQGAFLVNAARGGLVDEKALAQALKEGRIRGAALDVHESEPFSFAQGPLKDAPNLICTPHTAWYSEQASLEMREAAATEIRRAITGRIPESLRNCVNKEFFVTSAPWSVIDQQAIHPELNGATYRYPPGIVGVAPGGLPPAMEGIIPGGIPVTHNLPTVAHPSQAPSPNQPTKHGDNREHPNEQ

[3] = variants of: B1; conditions: with ctbp2_mouse Ctbp2, P56546; remark: listed apart in the source

K568R;D590A;L591S;L619S;D620A
effect of a mutation on the interaction [1]: decreasing interaction

D590A;L591S;D620A;L621S
effect of a mutation on the interaction [2]: disrupting interaction | effect of a mutation on the interaction [3]: disrupting interaction | effect of a mutation on the interaction [1]: decreasing interaction

K568R
effect of a mutation on the interaction [1]: decreasing interaction
